Experimental data taken from US20160024194A1.

Columns and labels:
[1] = target: human fibronectin (purified; plasma fibronectin used in the ELISA assays; purified Fibronectin protein from BIOPUR AG in Biacore) (human) (UniProt P02751); test: SPR, Biacore 3000, antibody captured on anti-mouse antibody on CM-5 chip, fibronectin in solution, 1:1 Langmuir fit, two experiments; lower end of the range from the two independent experiments; the text does not say which experiment
[2] = target: human fibronectin (purified; plasma fibronectin used in the ELISA assays; purified Fibronectin protein from BIOPUR AG in Biacore) (human) (UniProt P02751); test: Biacore 3000, 7A8 captured on anti-mouse antibody, fibronectin injected at 15 nM-500 nM, 1:1 Langmuir fit
[3] = target: human fibronectin (purified; plasma fibronectin used in the ELISA assays; purified Fibronectin protein from BIOPUR AG in Biacore) (human) (UniProt P02751); test: Biacore 3000, 7A8 captured on anti-mouse antibody, fibronectin injected at 20 nM-100 nM, 1:1 Langmuir fit
[4] = target: human fibronectin (purified; plasma fibronectin used in the ELISA assays; purified Fibronectin protein from BIOPUR AG in Biacore) (human) (UniProt P02751); test: SPR, Biacore 3000, antibody captured on anti-mouse antibody on CM-5 chip, fibronectin in solution, 1:1 Langmuir fit, two experiments; upper end of the range from the two independent experiments; the text does not say which experiment

Kd [1]: 2.8 nM
Kd [2]: 2.8 nM
Kd [3]: 7.26 nM
Kd [4]: 7.26 nM
B1: 7A8 monoclonal antibody produced by hybridoma PTA-120971 (antibody, V domains shown)
VH: QVQLRESEPGLVAPSRSLSITCTVSGFSLTSYAVSWVRQPPGKGLEWLGVIWTGGGTNYNSALKSRLSISKDNSKNQVFLKMNSLQTDDTARYYCARYSNLYYAMDYWGQGTSVTVSS
VL: DIVMTQSQKFMSTSVGERVSITCKASQNVGTNVAWYQQKAGQSLELLIYGASNRHTGVPDRFTGSGSGTDFTLTITNVQSEDMTNYFCEQYRSYPLTFGGGSKLEIK
